Data on 3 molecules can be found in patent publication US20080152587A1 (Amgen, published 2008).

The target of experiment [1] is T1, human urokinase-type plasminogen activator receptor (uPAR, CD87), cell-bound (human, UniProt Q03405 23-305). Description: cell-based or functional assay.
Experiment [2] concerns the target T1, human urokinase-type plasminogen …. The experiment in a line: FACS, B300.19 cells expressing human uPAR, anti-human gamma Cy5. A general note: A flow cytometer gives signals particle by particle.
Target sequence in this assay (Q03405 23-305): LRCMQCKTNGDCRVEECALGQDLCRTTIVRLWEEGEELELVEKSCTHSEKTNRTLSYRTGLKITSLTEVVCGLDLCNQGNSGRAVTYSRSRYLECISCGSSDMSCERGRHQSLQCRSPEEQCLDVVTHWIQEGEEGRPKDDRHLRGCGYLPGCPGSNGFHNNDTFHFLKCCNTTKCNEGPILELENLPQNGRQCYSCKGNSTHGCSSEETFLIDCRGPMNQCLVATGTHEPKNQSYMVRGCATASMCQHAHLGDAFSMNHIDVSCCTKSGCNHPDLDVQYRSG
For experiment [3], the target named is T2, lane 3: murine DI-human DII/DIII uPAR chimera (His-tagged).
T2 construct: The sheet prints only the lane number; also called Murine D1/Human D2D3; murine D1/humanD2D3
T2 uPAR ECD chimera: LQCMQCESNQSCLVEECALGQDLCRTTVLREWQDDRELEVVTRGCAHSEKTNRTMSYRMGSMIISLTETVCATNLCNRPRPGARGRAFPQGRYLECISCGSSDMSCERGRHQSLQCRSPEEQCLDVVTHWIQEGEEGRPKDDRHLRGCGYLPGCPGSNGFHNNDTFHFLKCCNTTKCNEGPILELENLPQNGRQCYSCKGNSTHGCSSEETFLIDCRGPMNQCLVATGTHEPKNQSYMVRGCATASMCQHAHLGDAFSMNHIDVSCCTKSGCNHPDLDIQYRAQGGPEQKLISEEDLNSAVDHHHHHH
Description: Western blot of HEK293T culture supernatants with His-tagged uPAR proteins, probed with the antibody. (A western blot detects proteins with antibodies after separation by electrophoresis.)
Description: (§1) Human-murine uPAR chimeras (His-tagged) were expressed in BEK293T cells and uPAR expression was detected using the anti-human uPAR mAbs as indicated.
(§2) Chimeric human-murine uPAR comprising murine D1/humanD2D3; murine D1/human D2/MuD3; and human D1D2/murineD3uPAR each with a C-terminal His tag were expressed as secreted proteins in HEK293T cells.

Experiment [4] has as its target T3, lane 1: murine DI/DIII-human DII uPAR chimera (His-tagged).
T3 construct: The sheet prints only the lane number; also called Murine D1/Human D2/Murine D3; murine D1/human D2/MuD3
T3 uPAR ECD chimera: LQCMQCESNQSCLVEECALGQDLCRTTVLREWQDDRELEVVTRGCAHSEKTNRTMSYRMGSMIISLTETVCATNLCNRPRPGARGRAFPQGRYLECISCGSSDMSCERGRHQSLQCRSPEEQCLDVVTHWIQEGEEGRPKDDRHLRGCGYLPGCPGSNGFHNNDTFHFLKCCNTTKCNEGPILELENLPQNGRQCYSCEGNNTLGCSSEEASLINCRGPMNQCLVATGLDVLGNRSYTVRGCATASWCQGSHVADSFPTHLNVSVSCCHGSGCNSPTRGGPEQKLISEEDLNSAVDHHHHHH
The experiment is described as above.
Description: as §1, §2

Experiment [5] addresses T4, lane 4: human DI/DII-murine DIII uPAR chimera (His-tagged).
T4 construct: The sheet prints only the lane number; also called Human D1D2/Murine D3; human D1D2/murineD3uPAR
T4 uPAR ECD chimera: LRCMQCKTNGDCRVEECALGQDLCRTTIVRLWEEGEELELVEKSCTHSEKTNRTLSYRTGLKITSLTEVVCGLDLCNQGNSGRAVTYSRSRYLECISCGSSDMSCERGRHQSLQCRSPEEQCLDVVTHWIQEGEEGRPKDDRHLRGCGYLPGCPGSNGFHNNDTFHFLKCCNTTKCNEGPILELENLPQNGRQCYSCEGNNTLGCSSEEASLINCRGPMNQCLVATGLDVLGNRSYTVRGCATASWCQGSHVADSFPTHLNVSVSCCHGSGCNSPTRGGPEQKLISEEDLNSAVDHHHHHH
The description is as above.
Description: as §1, §2

Experiment [6] concerns the target T5, lane 2: murine DI/DII-human DIII uPAR chimera (His-tagged).
T5 construct: The sheet prints only the lane number; also called Murine D1D2/Human D3
T5 uPAR ECD chimera: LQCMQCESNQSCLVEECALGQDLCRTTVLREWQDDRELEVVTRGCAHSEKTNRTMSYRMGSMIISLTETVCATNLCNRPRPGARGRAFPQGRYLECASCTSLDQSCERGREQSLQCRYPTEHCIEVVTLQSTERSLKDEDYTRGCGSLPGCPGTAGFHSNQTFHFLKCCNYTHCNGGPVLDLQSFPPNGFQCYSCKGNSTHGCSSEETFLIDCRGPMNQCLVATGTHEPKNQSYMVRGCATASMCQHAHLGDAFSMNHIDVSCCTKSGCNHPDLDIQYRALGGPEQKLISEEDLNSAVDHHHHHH
The experiment is described as above.
Description: as §1, §2

For experiment [7], the target named is T6, mouse uPAR on the surface of NCTC L929 cells (mouse, UniProt P35456 24-298).
T6 construct: whole, on cells; also called cell surface mouse uPAR
T6 sequence (looked up): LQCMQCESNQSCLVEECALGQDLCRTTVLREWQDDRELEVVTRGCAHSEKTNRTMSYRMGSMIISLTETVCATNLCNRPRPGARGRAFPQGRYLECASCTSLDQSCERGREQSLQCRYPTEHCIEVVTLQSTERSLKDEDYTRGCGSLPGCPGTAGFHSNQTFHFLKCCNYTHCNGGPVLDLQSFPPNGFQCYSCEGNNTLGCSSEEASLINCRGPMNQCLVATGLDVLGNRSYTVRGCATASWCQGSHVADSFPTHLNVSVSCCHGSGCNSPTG
The experiment in a line: FACS, NCTC L929 mouse cells.
Description: To make the mouse cross-reactivity results conclusive, direct binding of the mAbs to cell-bound mouse uPAR was measured using FACS analysis. The mouse cell line derived from the connective tissue, NCTC L929, was employed for FACS analysis. The harvested cells were resuspended at 50,000 cells/well using FACS buffer into a V-bottom plate which was put on ice. […] After washing, Cy5-labeled goat anti-human IgG Fc at 5 μg/ml and 7AAD at 5 μg/ml was added. The mixtures were incubated for 15 min on ice, washed and resuspended in cold FACS buffer for FACS analysis.

Experiment [8] deals with T7, soluble recombinant human uPAR/His6 (R&D Systems, Cat. # 807-UK-100) (human, UniProt Q03405 23-303).
T7 construct: range 1-303; Bought protein; also called soluble uPAR; hu-uPAR
The experiment in a line: high resolution Biacore.
Description: All mAbs were diluted into 10 mM sodium acetate, pH 4.0 for immobilization. […] All experiments were run at 23° C. with a flow rate of 100 μL/min. Serially diluted (2-fold) uPAR samples were randomly injected in triplicate for 90 seconds with several buffer injections interspersed for double referencing. A Biacore™ 2000 biosensor instrument was used for all high resolution experiments. Data were fit globally to a 1:1 interaction model with a term for mass transport included.

Experiment [9] has as its target T1, human urokinase-type plasminogen …. Description: FACS competition, FITC-tc-uPA on L929 cells expressing human uPAR, supernatant 1:2.
Target sequence in this assay (Q03405 23-305): as the sequence (Q03405 23-305) above
Description: Briefly, murine fibroblast L929 cells (ATCC) were transfected to express human uPAR.
The target of experiment [10] is T8, human Ly6e with a myc tag, expressed in HEK293T cells (human, UniProt Q16553 21-101).
T8 construct: whole, on cells; not shown: myc tag fused on the molecule
T8 sequence (looked up): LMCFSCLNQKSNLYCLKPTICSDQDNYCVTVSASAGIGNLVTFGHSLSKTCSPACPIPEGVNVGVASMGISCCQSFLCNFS
Description: FACS, HEK293T cells expressing Ly6e, supernatant 1:2.

Experiment [11] addresses T1, human urokinase-type plasminogen …. Description: cell-based or functional assay. The source holds these as a separate data set.

B1: fully human monoclonal antibody 4.18.1 (ATCC Accession Number PTA-7476) (antibody, V domains shown)
VH: EVQLVESGGGLIQPGGSLRLSCAASGFTVRNNYMNWVRQAPGKGLEWVSVIYTGGSTYYADSVKGRFTISRDNSRNTLYLQMNSLRAEDTAVYYCAREGAVAGFDYWGQGTLVTVSL
VL: EIVMTQFPATLSMSPGERATLSCRASQSVSSSLAWYQQTPGQAPRLLIYGASTRSTGFPARFSGIGSGTEFTLTISSLQSEDFAVYYCQQYGNWPLTFGQGTRLEIK
Regarding B1, the “inhibition of adhesion of U937 cells to vitronectin at 2 µg/ml” value (shortened to “inhibition of adhesion of U937 cells”) in experiment [1] was approximately 90%. Moreover, the “inhibition of plasminogen activation on U937 cells” value (from here on “inhibition … on U937 cells”) in [1] is more than 90%. In addition, in [2], the “gCy5 Geo Mean Pos Cells” value was determined as 251. In addition, the binding result in [3] was “binds”; in [4], “no binding”; in experiment [5], “no binding”; in experiment [6], “no binding”; in [7], “no binding (tested: 6.25 µg/ml)”; in experiment [10], “no binding (tested: GeoMean ratio 1.95)”. Also, the Kd in experiment [8] was found to be 0.446 nM. For the same molecule, in [9], the “uPA/uPAR binding Inhibition %” value stood at 75%. For the same molecule, the “Plasminogen activation inhibition (IC50, ug/ml)” value in [11] was determined as 0.067 µg/mL.

B2: fully human monoclonal antibody 2.19.2 (ATCC Accession Number PTA-7474) (antibody, V domains shown)
VH: QVQLVESGGGVVQPGRSLRLSCAASGFTFSSYGMHWVRQAPGKGLEWVAVIWYDGSNKYYADSVKGRFTISRDNSKNTLYLQMNSLRAEDTAVYYCARDQHIVVVTAILDYWGQGTLVTVSS
VL: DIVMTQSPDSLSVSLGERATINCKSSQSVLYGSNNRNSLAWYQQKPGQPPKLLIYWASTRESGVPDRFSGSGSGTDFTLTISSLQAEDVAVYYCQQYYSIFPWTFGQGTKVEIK
On to B2, for which the “inhibition of adhesion of U937 cells” value in [1] worked out at 90%. In addition, the “inhibition … on U937 cells” value in experiment [1] is more than 90%. Besides, in experiment [2], the “gCy5 Geo Mean Pos Cells” value amounted to 445. For the same molecule, the binding result was “no binding” in [3]; “no binding” in [4]; “binds” in experiment [5]; “no binding” in experiment [6]; “no binding (tested: 6.25 µg/ml)” in experiment [7]; “no binding (tested: GeoMean ratio 1.95)” in experiment [10]. Further, the Kd in experiment [8] was 0.175 nM. The “uPA/uPAR binding Inhibition %” value in experiment [9] worked out at 85%. Further, the “Plasminogen activation inhibition (IC50, ug/ml)” value in experiment [11] amounted to 0.053 µg/mL.

B3: fully human monoclonal antibody 2.6.1 (ATCC Accession Number PTA-7475) (antibody, V domains shown)
VH: EVQLVESGGGLIQPGGSLRLSCAASGFTVITNYMNWVRQAPGKGLEWVSIIYTGGSTSYADSVKGRFTVSRDNSKNTLYLHMNSLRVEDTAVYYCAREIAVAGYYGMDVWGQGTTVTVS
VL: DIQMTQSPSSLSASVGDRVTITCRASQGIRNDLGWYQQKPGKAPKRLIYAASSLQSGVPSRFSGSGSGTEFTLTISSLQPEDFATYYCLQHNSYPLTFGGGTRVEIK
notes: also called mAb 2.6.1
For the molecule B3, the “inhibition of adhesion of U937 cells” value in [1] is 90%. Also, in experiment [1], the “inhibition … on U937 cells” value was more than 90%. In addition, the “gCy5 Geo Mean Pos Cells” value in experiment [2] stood at 455. Moreover, the binding result is on record as “binds” in experiment [3]; “no binding” in [4]; “no binding” in experiment [5]; “no binding” in [6]; “no binding (tested: 6.25 µg/ml)” in experiment [7]; “no binding (tested: GeoMean ratio 1.95)” in [10]. For the same molecule, in experiment [8], the Kd came to 0.249 nM. Also, in [9], the “uPA/uPAR binding Inhibition %” value worked out at 80%. The “Plasminogen activation inhibition (IC50, ug/ml)” value in experiment [11] turned out to be 0.073 µg/mL.

What is called Kd is the concentration at which binding is half-saturated.
